Experimental data published in the supplement of paper PMC10598134.
± gives the standard deviation.

Assay: collision cross section of modified peptide (TIMS, N2, iRT-aligned); higher = larger / more extended gas-phase ion
How it was run: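 On a timsTOF Pro/HT (dda-PASEF, nitrogen, ~2.4 mbar), synthetic peptide pools were analysed after a 120-min nanoflow C18 separation at 60 °C and identified in MaxQuant. Three reference ions served for 1/K0 calibration, with run-wise alignment to the median iRT peptide deviation. Collision cross section comes from the Mason-Schamp equation, using the most abundant feature per charge state averaged over 1–3 technical replicates.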

[1] = charge state: 2, modification: Acetyl (K)
[2] = charge state: 2, modification: Butyryl
[3] = charge state: 3, modification: Butyryl
[4] = charge state: 2, modification: HexNAc (ST)
[5] = charge state: 3, modification: Methyl (K)
[6] = charge state: 2, modification: Methyl (K)
[7] = charge state: 2, modification: Nitro (Y)
[8] = charge state: 2, modification: Glutarylation
[9] = charge state: 3, modification: Glutarylation
[10] = charge state: 2, modification: Hydroxyproline
[11] = charge state: 2, modification: Phospho (Y)

VNIGQGSHPQKVK [_VNIGQGSHPQK(Acetyl (K))VK_]
collision cross section [1]: 426.92 ± 2.1 Å²
collision cross section (charge state: 3, modification: Acetyl (K)): 478.98 ± 3.2 Å²

TPNLYIYSKK [_TPNLYIYSK(Butyryl)K_]
collision cross section [2]: 388.09 ± 0.85 Å²
collision cross section [3]: 439.93 Å²

LQLGTPPPLLAARLVPPR [_LQLGTPPPLLAAR(Citrullination (R))LVPPR_]
collision cross section (charge state: 3, modification: Citrullination (R)): 576.16 ± 0.34 Å²

AGQKLIDVNHYAK [_AGQK(Butyryl)LIDVNHYAK_]
collision cross section [2]: 434.25 ± 1.1 Å²
collision cross section [3]: 485.15 ± 2.9 Å²

APVGSVVSVPSQSSASSDK [_APVGSVVSVPSQS(HexNAc (ST))SASSDK_]
collision cross section [4]: 464.2 ± 0.14 Å²

TFGKAAGPSLSHTSGGTQSK [_TFGK(Methyl (K))AAGPSLSHTSGGTQSK_]
collision cross section [5]: 525.9 ± 1.3 Å²

LTSLNVKYNNDK [_LTSLNVK(Methyl (K))YNNDK_]
collision cross section [6]: 408.99 ± 1.4 Å²
collision cross section [5]: 486.12 ± 3.3 Å²

LDYSDFQIVK [_LDY(Nitro (Y))SDFQIVK_]
collision cross section [7]: 369.5 ± 0.55 Å²

GEVGAGAGPGAQAGPSAKR [_GEVGAGAGPGAQAGPSAK(Propionyl)R_]
collision cross section (charge state: 2, modification: Propionyl): 422.82 ± 0.97 Å²
collision cross section (charge state: 3, modification: Propionyl): 482.16 ± 0.88 Å²

LLFSNTAAQKLR [_LLFSNTAAQK(Trimethyl (K))LR_]
collision cross section (charge state: 2, modification: Trimethyl (K)): 428.25 ± 0.6 Å²
collision cross section (charge state: 3, modification: Trimethyl (K)): 480.65 ± 2.4 Å²

SDDESSQKDIK [_SDDESSQK(Acetyl (K))DIK_]
collision cross section [1]: 374.03 ± 0.38 Å²

ALASIDSKLNQAK [_ALASIDSK(Acetyl (K))LNQAK_]
collision cross section [1]: 399.37 ± 2 Å²

VLTANSNPSSPSAAKR [_VLTANSNPSSPSAAK(Gluratylation)R_]
collision cross section [8]: 432.88 ± 2 Å²
collision cross section [9]: 532.45 ± 0.12 Å²

GEYFGEK [_GEY(Nitro (Y))FGEK_]
collision cross section [7]: 309.86 ± 0.71 Å²

ASNAAVKLAESK [_ASNAAVK(GlyGly (K))LAESK_]
collision cross section (charge state: 2, modification: GlyGly (K)): 395.25 ± 1.5 Å²
collision cross section (charge state: 3, modification: GlyGly (K)): 457.62 ± 1.1 Å²

DLGKFQVATDALK [_DLGK(Methyl (K))FQVATDALK_]
collision cross section [6]: 399.05 ± 1.1 Å²
collision cross section [5]: 491.01 ± 3.2 Å²

TPSSFRQPFTPTSR [_TPSSFR(Methyl (R))QPFTPTSR_]
collision cross section (charge state: 3, modification: Methyl (R)): 481.78 ± 1.9 Å²

GFPGAPGLPGLK [_GFPGAP(Hydroxyproline)GLPGLK_]
collision cross section [10]: 358.41 ± 0.79 Å²

ASTPGAAAQIQEVK [_AS(HexNAc (ST))TPGAAAQIQEVK_]
collision cross section [4]: 409.94 ± 0.76 Å²

LLFSNTAAQKLR [_LLFSNTAAQK(Malonyl)LR_]
collision cross section (charge state: 2, modification: Malonyl): 400.72 ± 0.029 Å²

VQFAPEK [_VQFAP(Hydroxyproline)EK_]
collision cross section [10]: 316.39 ± 1.9 Å²

DYILEGEPGK [_DY(Phospho (Y))ILEGEPGK_]
collision cross section [11]: 357.17 ± 0.065 Å²

QQETAAAETETR [_QQETAAAETET(HexNAc (ST))R_]
collision cross section [4]: 397.03 ± 0.67 Å²
collision cross section (charge state: 3, modification: HexNAc (ST)): 483.44 ± 0.18 Å²

LAEEENKAK [_LAEEENK(Methyl (K))AK_]
collision cross section [6]: 347.67 ± 0.66 Å²
collision cross section [5]: 422.11 Å²

IDLPAENSNSETIIITGKR [_IDLPAENSNSETIIITGK(Dimethyl (K))R_]
collision cross section (charge state: 3, modification: Dimethyl (K)): 568.21 ± 0.55 Å²

VNALKNLQVK [_VNALK(Methyl (K))NLQVK_]
collision cross section [6]: 371.4 ± 0.45 Å²
collision cross section [5]: 420.52 ± 3.9 Å²

GTITVSAQELKDNR [_GTITVSAQELK(Gluratylation)DNR_]
collision cross section [8]: 422.99 ± 0.48 Å²
collision cross section [9]: 483.37 ± 1.7 Å²

LEKTIDDLEEK [_LEK(Biotin)TIDDLEEK_]
collision cross section (charge state: 2, modification: Biotin): 422.95 ± 1.4 Å²

SITHSTVGSKGEK [_SITHSTVGSK(Butyryl)GEK_]
collision cross section [2]: 396.1 ± 0.79 Å²
collision cross section [3]: 440.88 ± 2.8 Å²

TTGFYSGFSEVAEKR [_TTGFYSGFSEVAEK(Succinyl)R_]
collision cross section (charge state: 2, modification: Succinyl): 441.9 ± 0.5 Å²
collision cross section (charge state: 3, modification: Succinyl): 512.39 ± 1.6 Å²

YTTNNSSEQR [_Y(Phospho (Y))TTNNSSEQR_]
collision cross section [11]: 363.91 ± 0.65 Å²

SGNLTEDDKHNNAK [_SGNLTEDDK(Crotonyl)HNNAK_]
collision cross section (charge state: 2, modification: Crotonyl): 426.1 Å²
collision cross section (charge state: 3, modification: Crotonyl): 469.87 ± 1.6 Å²

GEPGLPGHPGK [_GEPGLP(Hydroxyproline)GHPGK_]
collision cross section [10]: 337.36 ± 0.3 Å²

IGAEVYHHLK [_IGAEVY(Nitro (Y))HHLK_]
collision cross section [7]: 375.15 ± 0.55 Å²
collision cross section (charge state: 3, modification: Nitro (Y)): 440.09 ± 1.8 Å²
